# Assay results published in the supplement of paper PMC12455559.
# Test: purified protein yield per well (BCA); higher = higher soluble expression
# Experimental: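 Candidate PET hydrolases were expressed in E. coli C41(DE3) in 2 mL autoinduction cultures in 24-deep-well plates, Ni-bead purified and released by SUMO protease cleavage on an OT-2 robot. Yield per well was measured by BCA; values below 25 ug (0.1 mg/mL) are below the detection threshold. Melting temperature was measured by differential scanning fluorimetry with Sypro Orange, ramping from 25 C at 0.3 C/step.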
row,Sequence,purified protein yield per well [µg]
1,ADNPYQRGPDPTVASVAATRGTFATAQLTVPAGNGFGGGYIYYPTDTGHGTWGAVAIVPGYSALFADEEAWMGPWLASFGFVVIGVETITRSDGADARATELLAALDYLTQRSAVRDRVDPTRLAVMGHSAGGAGTILAAERRPSLKAAVGLAPGTPGTLSLATDKVPMMVIGGQTDPTVTPAYLDNLYAGMPTTTPSDFVQIAGADHLFFTRANNTEMKVLIPWLKIFLDNDTRYTQFLCPSLADPSGISLYRSKCPYLPPGTTSPSPPSPSPSSPSQSVSPSTPVTGCTAGYRTVGSWPGGFQGEVTVTAGSAAISGWTVGWTLGSGQTITQLWNGALTTSGSAVTVRNASYSGSVPAGGSVVFGFLANGTPSAPVLACASR [ESM027],< 25
2,ADNPYQRGPDPTVASVAATRGTFATAQLTVPAGNGFGGGYVYYPTDTSQGTWGAVAIVPGYSARFADEEAWMGPWLASFGFVVIGVETITRTDGADARATQLLAALDYLVGQSPVRDRVDPARLAVMGHSAGGAGTIIAAERRPSLRAAVGLAPGTPGSLSLATDRVPMMVIGGQTDPTVTPSYLDNLYATVPAATPSDFVQIAGADHLFFTRANNTEMKVLIPWLKIFLDSDTRYTSLLCPSLADPSGISLYRSKCPYVPPGTTSPSPSSPSPSSPGPPVPVAACTATYRTVNAWPGGFQGEVVVTAGGTAITGWTVRWTLGSGQTISQLWNGNLTTSGSAVTVDSAAYNGSVPPAGSVVFGFLATGSPTTPAPVCASP [ESM046],< 25
3,ADNPYQRGPDPTVASVAATRGTFATAQLTVPPGNGFGGGYIYYPTDTSHGTWGAVAIVPGYSALFANEEAWMGPWLASFGFVVIGVETNTRSDGADARATELLAALDYLTQQSAVRDRVDAGRLAVMGHSAGGAGTILAAERRPALKAAVGLAPGTPGSLSLATDKVPMMVIGGQTDPTVTPAYLDNLYAGMPTTTPSDFVQIAGADHLFFTRANNTEMKVLIPWLKIFLDNDTRYTQFLCPSLADPSGISLYRSKCPYLPPGTTSPSPSSSVTPSSPSSPSSPSTGCTAGYRTVGQWPGGFQGEVTVTAGSAAISGWTVNWTLGSGQSVTQLWNGTLTTSGSAVTVRNASYSGSVPAGGSVVFGYLADGTPSTPLLTCTGQ [ESM032],< 25
4,ADNPYQRGPNPTLSSVRAGSGPYATTSTTVARSAVSGFGGGTVYYPTSTSDGTFGAVAMCPGYTATKESLAWFGPRVASHGFVVFIIDTVTTSDQPAQRGDELLAALDHLTRTSSVRSRIDASRLAVAGHSMGGGGTLEAAKDRPGLRAAVPLAPWNTTKNWSGNRVPTLIIGGQSDTIAAVSSHAVPFYTSLPTTPDKAYLE [DP074],< 25
5,ADPGTGGGNGGGNTCQEDCGFERGPDPSVSMLEARNGPFSVRTSRVSGLVSGFGGGTIHYPTGQSGTMGAIVVIPGFVSAESSIDWWGSQLASHGFVVMTIDTNTGFDQPPSRARQINAALDYLVDQNRASGSPVNGMIDTSRLGVIGWSMGGGGTLRVATEGRIKAAIPLAPWDTSSRQFRSVQAPTLIFACGSDLIAPVRSHASPFYNALPNGLDKAYFEISRGSHYCANGGNTNNSRLSRLGVSWMKLHLDQDQRYNQFICGPRHESDRSISEYRGNC [ESM181],< 25
6,ADSPYQRGPDPTPASVAATRGPFATTQATVPAGNGFNGGYVYYPTDTSQGTWGAVAIVPGYSALFANEEAWMGPWLASFGFVVIGIETNSRSDGADARATQLLAALDYLTRTSPIRDRVDANRLGVMGHSAGGAGTLLASLRRPTLKTAVGLAPGTPGNNLNMSTTQVPTMLLSGQNDGTVTPSYVQGIYNTLPAGVEHAWAELAGNDHLSFTRSNPTEMRLLIPWLKTFLDNDTRYTQFLCPLGNSTGVSRYNATCPLVPPDGPTTPPTSSPPTSAPPTTSAPTTPPPSGAPCTATYRTVNAWSGGFQGEVTVTAGTAAINGWTVTWGLNNGQSISQVWSGTLSTSGSTATIRNVSYNGSLAPGGTTSFGFLGSGTPAATSPTCASP [ESM025],< 25
7,AEDNPHERGPAPTQQSIEAEKGPFEVDKVTVPGGDGFAGGTIYFPKDTSKGKFGGVAISPGFMSFEAMVSWYGPRLASQGFVVFTIGTFTPMDIPSSRADQLLASLKFLVEKSPAKDRVDGTRLALMGHSMGGGGTLHAAARTPGLQAAIPLTPWELTSDFSKVQVPTLVFTGQADFVAPASMGKSFYQSIPDSTEKGYVELAGGSHFDPLFPNVTYAKYSISWLKRFVDNDTRYDQFLCPVPKDPKLSAIEETCPLG [DP013],< 25
8,AENPYERGPDPTESSIEASRGSFAVSQTSVSSLAVIGFGGGTIYYPTSTAQGTFGAVAISPGFTATQSSIAWIGPRLASQGFVVFTIDTNTIYDQPDSRGDQLLAALDYLTQRSDVRSRIDTSRLAVAGHSMGGGGSLEAAQDRPSLQAAVPLAPWNTQKSWSSLRVPTFIIGGESDTVAPVASHSIPFYTSIPASAEKAYMELDNASHFFPNTANTTMAKYTISWLKRFVDNDTRYEQFLCPAPDDRTISDYRDTCPHA [TEP129],< 25
9,AENPYQRGPDPTPASVSANRGSFATTQVSVPSGNGFGGGIIYYPTDTSQGKFGAIAIVPGYTATWAAEGAWMGHWLASFGFVVIGIDTNNRNDWDNARGQQLLAALDYLTQRSSVRDRVDATRAAVMGHSMGGGGAAYASLQRPTLKTSVGLAPASFSQNLTTTRVPTMLLSGQNDGTVTPSSVLNLYNGIPAGVEKAYLELTGAGHGFPTSNNPTMMRVVIPWFKVFIDSDTRYTQFLCPLSNGNGIRSYQSTCPLVPSTPPTSTTTSTTTTTTTTTTTTTTTTSTSTTTTTPQPGGACSAVFRTTNSWPGGYQAEVTVTAGDSGVSGWTTHWTLGSGESVSQVWNGALTVSGSSVSVRNVSYNGSLAPNRSTTFGFIGGGAPPTSPFTCTSP [ESM029],< 25
10,AETSYENGPDPTSSSIEAVKGPFEVSTQTVSSYSVRDFGGGTIYYPASSVEGGYGAVAISPGYTARKSSIAWLGSRLASQGFVVFTIDTKTTSDRPASRGDQLLASLDYLTENSRIKDQVDPNRLAVMGHSMGGGGVFEAAKDRPELQGAIAMTPWNTNKTFSEVSTPTLIFGAQDDTVAPVSRHSIPLYSGLPSTTPRTYLELRGASHFAPNRSNTTIAAQSIAWLKAFLDEDRRYDQFLCPGPTTGIDLSDVRTSCPF [DP036],< 25
11,AGEQEYRRGPDPTLASLQAQEGPFAYATVTVPDQATYDGGTIYYPTDTSQGTFGAIAISPGYTGYQNSIAWYGRLLASNGFVVFTIDVENTNYDQPNARGEQLLDALDYLTQTSSVRSRIDPNRLAVAGHSMGGGGALRASYLRPSLQASIPLTPYHTWKNWSWVTVPTMIFGAENDTVTEVEDHAEPFYNTLTSAQERFYIELNAPADHLTPTSYDPTIGQYPRAFAKRYIDTDTRYEQFLCPPPAPSSAVEESRRACLGS [DP031],< 25
12,AGNPHQRGPDPTPQSIVAEKGPFEVATAPAPAGNGFGGGTIYYPTDTSQGTFAGIAISPGFFGPQFSIDWYGPRLASQGFVVIAITTNALWDFPSQRADQLLAALKYLKQDSPAKDRLDGGRLGVMGHSMGGGGTMEAVLKDHSLKAAIPLTGWGITADYSGVQTPTMIIGAQFDVVAPDESYSIPFYKSLRPDLDKQFLQLAGGTHFSPNLPNTTIAKYSISWLKRFLDDDTRYQQFLCPVQPDPELSAHEATCHS [DP001],< 25
13,AGNPYQRGPDPTVASVAATSGPFATAQLSVPPGNGFNGGMIYYPTDTSLGTWGAVAIVPGYTALFANEEAWMGPWLASFGFVVIGVETNSRTDYDVARGTELLAALDYLTQQSPVRDRVDATRLGVIGHSMGGGGVVYATEHRPSLKSAVALAPFSPSQTMATDTVPTMVMGGQNDTVVTPSYLSGLYATMPATTQSDFLQIAGADHVYYTHPNSVEMRILIPWIKTFIDNDTRYTQFLCPALADPTGVSIYQSKCPYVPGGSTPPPPTGGPVHAVGAGKCLDVPNSSTTGGTQLQIYTCDGQSNQTFTHTSTGALSVTDNGTTMCLDANGKGTTSGTKVIIWSCNGQTNQQWNVNSNGTITGVQSGLCLDVSGASTANGALVQLWTCNGQSNQQWKLG [TEP015],< 25
14,ANPYERGPAPTLSSIQATTGPFATATTTVPSGNGFGGGTIYYPTDTSQGTFAAIAMSPGFFNTQSAISWYGKRIASQGFVFLTINTNTILDFPDSRATQLLAALDYLTQSSPVSSLIDSSRLGVMGYSMGGGGTLKASKTRPSLEAAVGVAPWHSTKNWSTNTVPSMMLGMQNDTVAPASSHAIPFYNSLPASIHKVYAEVRGASHSTPTSANTPIAQYSIAFLKQELDNDTRYTQFLCPAPAVGGTNPLSAYSSTCPF [DP067],< 25
15,APAESAQRAASPYERGPAPTEQSVSAKLGPFAFTQVPAPANASAGFNQGTVYYPNDTGQGTFGAIAITPGFLSPESSIGWLGPRLASNGFVVITLTTNSPVDFPGGRAAQMRAALDWVTKQAPDAIRSRIDPTRLGVMGWSMGGGGTLEVANTHPNIQAAVPLAPWHLTNNWSTVKVPTMIIGAQNDLIAGVGAHSEPFYESLKSAPERAYAEIKGGNHFSVTVDTPLVGKLATSWMKRFIDDDTRYDQFLCPKPTDSTLSEYRDSCPNG [DP035],< 25
16,APAHHAAPAHAAAHHHAPFAVRATVVPKTAVKAFGGGVIYTPQDTGKPVLGAVVITPGFTNTNADEKQLGELVASQGFVAFVIDTLDTGDLPDQRATEILAAADYLTGQSAVRSEVSAKDVGLIGYSFGGGGTMQAAQARPSIKAAIGLMPFDFPPASDPDAQYPAYPKLTTPTLVITGQKDDVADPADFGKPAYDSIPAGTPKQYLELKGLDHYAGEHAPVAAIRNAVTAFLKRYLDGNSAYAKFICPAPKVGGPITASYSSCPKG [ESM112],< 25
17,APANPYERGPDPTEASVTAEKGPFTIERIDVPTGSGTGFNRGTIYAPTDTSQGTFGAIAVSPGFVSPQAWIDWYGPRLASQGFVVMTLETLNLMDVPDSRANQLLAALDYLTGKSTVKNRIDPARLAVMGHSMGGGATLRAAAERPALQAAIPLAPWHTDRDWQGVTVPTMIMGADNDFIAGVGAHAEPFYRNLTSAPEKAYLELRNAGHMSFNTPNTTIAKYGISWMKRFVDDDTRYDRFLCPAPRPGAAINEYRDTCPNG [TEP186],< 25
18,APAPATAAAADNPYERGPDPTEDSIEAARGPYDVAETSVSSWVVSGFGGGTVYYPRETDDGTFGAVAVAPGYTASQSSMAWLGPRLASQGFVVFTIDTLTRLDQPASRGRQLLAALDYLTERSAVRNRIDASRLGVMGHSMGGGGTLEAAADRPSLQAAVPLAPWNLDKTWGELRVPTMIIGADGDSIAPVSSHSEPFYESLPGGLDRAYLELNNADHFTPNLPDTTLAKYSLSWLKRFIDNDTRYEQFLCPLPRPGWYIEEYRGTCPHLS [TEP124],< 25
19,APGPSAPCADCSRGPNPTVASLQSRSGPFTVSTFSVSGYLRGFGNSTVHYPTNATGKMGAIAVIPGYLSYEDSIRWWGPRLASHGFVVITMNTNTIYDQPDSRATQLSRALDYVIEQSNSRSSPISGKVDSTRLGAIGWSMGGGGSLKLSTERSLNAIIPQAPYYAGLNRFNTINTPTMILACSADVVAPVASHASPFYNRIPDATPKAFLEIYGGSHFCANSGYPNEDLLGMYGISWMKRFIDFDSRYSQFLCGPNHAADLRVSEYRENCNY [ESM165],< 25
